Measurements taken from patent US20090221985A1, “SYSTEM FOR IONTOPHORETIC TRANSDERMAL DELIVERY OF POLYMERIC AGENTS AND METHODS OF USE THEREOF” (priority 2005, published 2009).

Columns and labels:
Assay type in all cases: in vitro ADME
[1] = Iontophoretic delivery of hyaluronic acid (with BSA) through pig ear skin treated by chemical microporation; details: Silver Nitrite microporated skin, iontophoresis as in Example 1
Description: Bovine serum albumin (BSA; Sigma) was dissolved in 10 mM sodium phosphate pH 7.2 containing 0.15 M NaCl to yield BSA concentration of 10 mg/ml. Hyaluronic acid suspension (1 mg; Q-Med) was incubated with 0.1 ml of the BSA solution at 40° C. In addition, 0.1 ml glutamic acid (10 mM) was added to another sample of the hyaluronic acid-BSA solution to yield pH 4.0. Piece of a pig ear skin was exposed to chemical microporation using Silver Nitrite and then iontophoretic delivery of the complex was performed as described in Example 1 herein above.
Hyaluronic acid transmitted through the pig ear was stained by complexation with a copper phtalocyanin dye and measured by the Bradford reagent.

[2] = Iontophoretic delivery of collagen through pig ear skin treated by chemical microporation, Bradford assay; details: Silver Nitrite microporated skin, 15V, 1 h
Description: (§1) Collagen (100 mg/ml; Sigma) was dissolved in 10 mM sodium phosphate pH 8 containing 150 mM NaCl or in 10 mM sodium phosphate pH 8 containing 150 mM NaCl to which 10 mM glutamic acid solution was added (0.2 ml of glutamic acid were added to 1 ml of collagen to yield pH 4.0), and the glutamic acid solution was incubated at room temperature for 1 hour. Thus, positively charged collagen was driven into the skin by the positive electrode and negatively charged collagen was driven by the negative electrode. The amount of collagen transmitted through the skin was measured by the Bradford assay (Bradford M. M. Anal Biochem. 72, 248-254, 1976).
Pig ear skin piece was treated by chemical microporation using Silver Nitrite and then iontophoresis of collagen was performed as follows:
Twenty ml reservoir was mounted over the skin piece allowing its wetting (FIG. 5). Iontophoretic transmission experiment using the same solutions as described in Example 1 herein above was performed on each sample. Electrodes were placed in the upper and lower reservoirs. At the end of the experiment the amount of collagen transmitted through the skin was measured by the Bradford assay (Bradford M. M. Anal Biochem. 72, 248-254, 1976). The iontophoresis was performed under the following conditions: 1. Distance between electrodes (upper and lower reservoir)—2 cm;

[3] = Iontophoretic delivery of collagen through intact (untreated) pig ear skin piece, Bradford assay; details: untreated 1.5 mm pig ear skin; 15V DC, 0.1 mA, 30 min; collected in 5 min intervals (FIGS. 3 and 4)
Description: Measurements were performed on collagen delivery through a 1.5 mm thick pig ear skin. The skin piece was obtained by slicing with scalpel a 1.5 mm thick section of a pig ear and fixed it over a 2 cm diameter laboratory vial. The vial was filled with a 50 ml solution of 0.05% NaCl in water to contact with the skin piece.
The experiment was performed by measuring the amount of collagen transmitted through the skin piece into the vial's solution by iontophoresis.
as §1
The experiments were performed at a 15V DC applied voltage and at a current of 0.1 mA for 30 min.
The amount of collagen collected in 5 min intervals was measured by the Bradford reagent.

Substance: Hyaluronic acid
- Transmitted amount ([1]; initial amount 0.01 mg): 0.007 mg
- Transmitted amount (%) ([1]; initial amount 0.01 mg): 70%
- Transmitted amount ([1]; initial amount 0.05 mg): 0.030 mg
- Transmitted amount (%) ([1]; initial amount 0.05 mg): 60%
- Transmitted amount ([1]; initial amount 0.1 mg): 0.046 mg
- Transmitted amount (%) ([1]; initial amount 0.1 mg): 46%

Substance: Collagen
- Transmitted amount ([2]; initial amount 0.1 mg): 0.04 mg
- Transmitted amount (%) ([2]; initial amount 0.1 mg): 40%
- Transmitted amount ([2]; initial amount 0.5 mg): 0.3 mg
- Transmitted amount (%) ([2]; initial amount 0.5 mg): 60%
- Transmitted amount ([2]; initial amount 1.0 mg): 0.48 mg
- Transmitted amount (%) ([2]; initial amount 1.0 mg): 48%
- Transmitted amount ([2]; initial amount 10.0 mg): 5.6 mg
- Transmitted amount (%) ([2]; initial amount 10.0 mg): 56%
- Transmitted amount ([2]; initial amount 20.0 mg): 11.0 mg
- Transmitted amount (%) ([2]; initial amount 20.0 mg): 55%
- collagen transmitted through the skin piece by iontophoresis [3]: iontophoretically transmitted through the piece of pig ear skin
